Assay: protease stability score; higher = more stable; yeast display proteolysis, trypsin and chymotrypsin;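 also: relative to predicted unfolded state with 0 unfolded-like and 1 meaning tenfold more protease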

Sequence | protease stability score
DEEEKRIEEIARLIFKLWHTGDEEHFLRLADPHVRLNVDGRELHGRERVKHWLHELRHRVDHITDYKEKHKENQGEFFVQWGVLDVHVDGKNVRTRVRIEIVVIDGKINEVRIEVH | 1.36
DEEEKRVIHIINLVEHALETGDEDLYKNLLDPDPIYNINGRILHGREFWLEFLHHMRESIEISHWHDVRSQGDKVTVHAKTTFLIRIGDKVDRVETEVRIIIVKINGRWLLHEIHHH | 0.849
DEEEKRWRHMTHLFWHIEKTGNEDRLSKLADPDVRLNINGVHAHGREEVISVLREFQERYKNLTIHIKDIKVFDGVVFIDGEDHFDGVTVKSLVIIFIVNGRIKEIEHRRE | 1.62
DEEEKSLREMMRQFVEHLETGNFEEIEKMADPNARVRIDGRDFVGREEWHKMFIHLHKHLRLEDSHIHHIDFQGNKIHIHGHIHVVVDGKREHRHFHVIIRKVNGRWTIEEMYIE | 1.06
DEEEKSLRFAIKMMEELIQTGDEDLFERLLDPDTRLRVGDKTFHGREQVLKWFEEWLKRMGADHVELRLHDMRVVGDKLDLDVEYRQYVGDKDIHDRRHLIIIKVNGRWYFKEVRIL | 1.67
DEEEKTFEQIVRHLIDDLVTGDWEKLRDYFDPHVRVEIGDKRIVGRETLVDELSHWRVKHVRVELHDYRVINGRIEVHGSVDFRGNIDGRELRHSYETKIIFDKINGRWTLQSHHVL | 1.21
DEEEKVEDDMLHRWLQYFLTGDEEHLLELADPRVRVRINGKDDHGMNAVERFWEEYRRKFKNVRIHIHDMRYYDGVIHVDGILQINGKTLKIEFIIVIVNGRIRFITENIR | 1.73
DEEEKVIKDVVDMLRKALRTGDEERIRELADPDVRIEQGDKELHGRELWLEWLKEIRTERVILHVRRVRHFNGKIINEIEVRMDVRVGEFRHESTVSTILIMEKFNGRWHIRSMIIE | 1.5
DEEEKVSRLAWELLFKTWKTGDEHEFHHMFDPDVRVDFNGRHLHGREAEEILFKQVDHIEDLHLRHIHMIDGKIQIEEDVVGHFNGQRTNVHVRFVAKKIDGRWRNKMVIVR | 1.2
DEEEKVVFELLRLFITAWETGDEDVLLRLADPNVRMTIGDKHYHGMEHFSHVYLLIFEELRITVKVHDIRIIGDKAYVDVEERRHQGDKSWKYRTHYEFEKIDGRWKLRRVEVK | 2.54
DEEEKWFRESEKLIEELIHTGNEEEFRKLADPNMRLDFNGVEVHGRHHFFREIRHTSEKFGVDKVEVRLKDFKVFNGVAHYHGEIIFNGRTIEHEIIAEKVNGRWRLQFLIFR | 1.61
DEEEKWIRHILELVLRAEKTGDEDRLSELMDPDVKLDIDGRDLHGREKVKEWIEELKHKFKNLRIIDRDIRIYGEKHNVHGELHFNGQTHSAIIILRIVDGRIKEIFVIHV | 1.32
DEEEKWMRNLTEWLLKSLTTGDFESFNRMFDPRTRMHVDGREFHGREEVERYLREFDDKLGADHRESDLEHIEVQGNKARFHTTLKFDIGDKHLRIDTHLVIVKINGQWRIRHVEVR | 0.839
DEEEKYIKSLAKLISHAISTGDFELFHKLVDPDVRLIVDGVDLHGWELATKWIEEIRVEDHEVRVKEVRFVDGRANSDGEVILDGEYNGREKRVERKTILVSLKVDGRWTVKSLEIK | 0.882
DEEEKYSKEANTMSRHLVETGDEEIMSKLLDPDVRNDVDGVEFHGRELLSRILKEWRVRFESMHIEDEELQGDKVIVHGRELVRMIYDGKTFNTERKVIFIVVKINGRWFIKEVKVL | 0.751
DEEEKYVEDIAREFLHAMRTGDEEWNKELADPHVRMHLHQGDYILNLHGRDLFTRVIRYLVDQWRLEIRIENFDSIGNKIEVHGTIILKQGDKSIKRKSIIHIDVVNGRLKEVHIHLQ | 0.152
DEEENMAEWAIRLMKHVIETGNFEEFLRLFDPNTRMHVNGVESHGRERSSKVLKEWLEIMGVDHLKVRDEKFSVQGNKLHIHLDTRTEQGDKEIETHIEVISYKIDGRWRQKEIRFEVR | 1.69
DEEEQAASHLEELIFRVIETGDWRNFYKMMDPDVRLDFNGQEYHGRENVTEAWHNSFHDLGIKHIELRTKNSQGDFLHLNFIVRYNGREFNVHFNWHVIDGRMKLIDIRVEHI | 0.585
DEEEQEFREFMKHVLEMIRTGDEDQWRKLMDPDARLIVDGKDIHGREEVVRLWSEITRHARFRDRKIHSMEIQGDKVRVDGRVLGEFNGVDRQTESHIIFHKINGRWKIHQEFIV | 0.882
DEEEQHAERVTRRWSRAVLTGNEEELSRLMDPHVRVHINGRDLHGREVAVEQRREQHKELGIDHIEVRLRHLRIQGDKLEVDSRVIIRVNGQEITIDTLLIWRKIDGRWVLHSVHEH | 0.348
DEEEQHLKKFLKYLKKAIETGDWHKITEMADPNTRLNINGVDNIGWEIISHILMHELEELGLEQIHVHFEHERIQGDKVKLEIHLHIGDKVEHAEMYILKFDGRWRIKRLVRG | 1.93
DEEEQHSRELAEIYFEIWETGDFHTHKRMMDPNAKLDYNGQTIHGREHIVEYLRHLWERVKGVRFHLDSVHLQGDWLHIRGTLQVDGQHHKVDIHVQIVDGVLHEEHIRVR | 1.53
DEEEQLFHEAHDKFIKIMETGDWKDFHRNFDPDAKIEVGDKDKHGREEATEMLKFILDLLGVDHVLVKRLRIYGNKIESDVVFNVNGVEQRFHLISVKINGKWRTHKIVLR | 1.23
DEEEQLSKIALRHFVESLETGDEHLLHRLIDPHARDIVDGVEIHGRDRMVENLIHMIERFKNVRLEIKDIKVINGRVHVEGRLEVDGKKLTMNLHFQKFDGRWWVRSVERH | 1.52
DEEEQQVEEVLRNMLRDFYTGDWKRLMKLADPHVQLDINGQLHHGREEAARFLIEWWEILGFKHSRLRHIDIQGEKLHIHGDKRVNGRTFELELIIIIINGRIRSEEIRVI | 0.691

Sequence | protease stability score
DEEEQRIEEMLKKWLEAMETGDEDLEKQLADPNVRFHIGDKEHVGREELSQVKKRLGIKVMILHDERVDRQGDWIVMHLDIILEFDGRRFRVRFNLFVEKIDGRWLVKKVEIHLR | 0.936
DEEEQSERIALELLDKSINTGDERVWKEMFDPRVIMDINGVKLIGREDYRRWRERFDHEENRDFKIHHHEVQGNKVHLDVEIDLTLNFDGKRHRHIFRTEVDVIKFDGKWHIRSLIVK | 1.18
DEEERAAEEFLRWISKNSRTGDEESFNHLADPNTRVIIGDKVLHGREEWKKFLEEIRIEEIELKDFRIFDGKIRLDVIHTGKVNGRRHEVQVQMIVIKVNGRWIMHSVKFD | 1.09
DEEERAARFVLELIIRTFDTGDEHTIHELLDPHVRLWVGDKTFHGREQITHLIQRHLEELGFDHVHVHHRTIDVQGEKIELHGELELRQGDKRDTRTIKIIVQKVDGRWRITIFEIE | 1.48
DEEERALIVLLLLFEESMRTGDPRLIKELMDPHMRLRFENRHYHGRDEFMEWFKQVDHIFIDRVNIRDVRLIGEWVRIDVEILGTHEQGDKQFEFRRRTHLVVRKVDGRWIMHHVEIR | 1.64
DEEERAMEHMVRHLVDDIHTGDWRSLYRFLDPDVRLHVGDKRFHGRDTIVRLLLELLQTWGIDRIHSEVKHVHLQGEKIEAHTKDKYGDFEFSVLVDIFKIDGKWVIERREIS | 1.08
DEEERDAEEVFRKFMRDVFTGNWDHIHEMFDPHARSSIQVDGRHIELHGRDELTRIFIWLGVDHIELKHVHIQGEKVISIGIVRYNGKHTHLEVYLRKVDGRWIIHSVHVRIR | 1.67
DEEERDAIHAFRDFVKNFITGNEDRIDELADPHMRSDINGVSIHGWEEFSRHTLREMKRFDHIEFRIRDIKIQGNYIHIDTEVILRVNGRTFSTRMVLIWLKVNGKWFLHEIDVR | 1.35
DEEERDAKEARDLLERSMDTGNEDLWKELLDPNMIIHIGDKEIHGMKEWIEFHKERGAETRVEFKDMRMQGNKLILRLNLKVHFDGQTYEHEVTYIVSKVDGVWLVKYIHIH | 0.981
DEEERDARRVYEHLIENWETGNFDRVLELFDPHVKLIFNGQEFIGRDDVSKEINRIDHEHIDDFRLHSIRIVDGRIEIDGRIRFTLHVNGKTVHFDRKLILIMRKVDGRWIITSLHIR | 2.09
DEEERDIKIAIEFWIETWLTGDEEKEEELLDPNVRLLINGKELHGRERVVKFLKRHYHRVDHSRIDIRRMHVVDGQVHVETELRVHFDGRELRFDIILHFRKFNGRWEITKIELR | 2
DEEERDISRWLDHLIESLETGDEDSLQHLLDPHVRVVVNGKDHHGWKALTKMLRQLRVNRIRIRDFEIIGDKIEVDIRMHVRVGDKHYVFNVDLVARKIDGRWIMHNITIH | 2.19
DEEERDLQQFIEEWWKTLVTGDEHLIERYLDPHVRMDWNGRELHGREAIADTIKKYVDEIRLEVRINHVRFQGDKVDIDGEIVERQGDKTRHLNFELEIIVVNGRAQEIRVRLR | 1.48
DEEERDMKHSSERLLRTWVTGDEDLLRTLADPDARHHLEVDGVHLHLHGMEHFSKWTTDLIEKLGIKHFDMKDLDVQGDKIHVHSTFHYGDKTFEVRLIVVKIDGKWLLSHSSFIVR | 0.299
DEEERDMKIAEEVFLHAMHTGDWKKFFELMDPHVKVHIDGVDLHGREEASKIWKERIDKVKNMTFDVKHSHRQGNKVTLHTELHVNGKTTHLIVVLSKVNGRWTLEEMSEE | 1.21
DEEERDSKRALELMIHWVETGNEERLSRLIDPHARLEIGDKHHHGREEFEKWFRRIDYLQYYTVRHIELQGDKIEVKVELTFIIDGQEVHTETRVIAIKFDGRWRLTSMEIN | 1.54
DEEERDSRIALEIWLHNVRTGDEKSERDNLDPHVRYIVDGRDYIGREDFLHMMSQIRIEEIRIKRFSSYNGRIHMDVHSRVTYNGVDRDIDENLHSTKYDGRWSIHYIEFR | 1.01
DEEEREARDAVHRFDKDVVTGDEDRLRELMDPNVKLDIGDKEIIGREYMVSFWRELVKHIRIHSITIKRVEVYDGRIHVHQEVTLNIDGQHVTIKSHTIALKVNGKWTWTRFSMT | 1.06
DEEERELKHFLKEFNRAWRTGDEDEIRHLLDPHVRILFNGVHVIGMEEIEKFWRHLRVRVTRITVHRVDLQGDKLRVDTEQDLVFLIGDFENKHTHHTVIFILKINGRWIIESIVIV | 1.45
DEEERERKHIAEEFAHELETGDEERFVELADPNVRSDINGKQYHGRDRFRDWQEQWHEKVKNLRFEIERWRVIGDFVRIDVRIRIDGRRHNVEIIQVVVNGRITFLEIRVK | 0.799
DEEERFAEEAVEIIIRDWMTGDEELLHRNADPHMRIEVGDKTIHGMENFVKFLLEIRMKDSRLRVEDVKHYNGKLHLTFKSEVDGRVNGRRKTLTFDIKMIIEKVDGRWILKTIHIV | 1.89
DEEERFSEEALRRIWHALETGDERIQEDLADPNVRIDVGEKSYHGREKWSEMIRHMRLHDIKIHHVIVINGRMRFHGRMDGNIDGKRIDTEVEIHFEKVDGKWLVRKIRIH | 2.25
DEEERHMKKLLDELLRAWVTGDESRLSELLDPNARSIVNGKSSHGREESEKIVRWAGVKHFNEDDTKLINGVVVVKGTMEVDGVTWEVDIRNFIFDGRVKEVRIIIR | 1.19
DEEERHTHEWFKELLHNLQTGDEDRFRQMADPNVQILVDGVEYIGREHAAHWMIIHIRHLRIEHEHDEEIRVFDGRIDVRHIRVGSYGDKRTDTRVHIDVNIIDGRIKFLRIHYS | 0.869
DEEERHTREMADWFITLFLTGNEEIMMELADPNMRLEHISEDEHYEYHGMHDVSRWLHELLLKFKNIRVRLRRIRIQGDYVIIHQDLNYNGKRVHVIIIVHIFDGRIKSLRFEFR | 1.67
